How the values were obtained:
[1] = system: XhoII restriction endonuclease (Xanthomonas campestris pv. holcicola ATCC 13461); assay: cleavage_in_vitro; details: 20 mM Tris HCl pH 7.4, 10 mM MgCl2, 37 C; no activity detected from E. coli DH10B extracts
[2] = system: XhoI restriction endonuclease (Xanthomonas campestris pv. holcicola ATCC 13461); assay: cleavage_in_vitro; details: 50 mM Tris HCl pH 8.1, 10 mM MgCl2, 50 mM NaCl, 37 C; no activity detected from E. coli DH10B extracts

| Substance | activity (units per gram of cells) [1] | activity (units per gram of cells) [2] |
| --- | --- | --- |
| phage lambda DNA (XhoII/BstYI sites) | 10000 |  |
| Adenovirus-2 DNA (XhoI sites) |  | 100000 |
